The supplement of paper PMC12042874
± gives the uncertainty stated by the source.

Assay: amyloid nucleation score (Sup35N fusion, yeast selection) (log enrichment); library NNK2; higher = more nucleation; inactive = no reads after selection
Method in brief: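 On medium lacking adenine and uracil, psi-negative yeast expressing peptides of 20 random codons fused to Sup35N were grown 7 days at 30°C after a 24-hour induction with 100 μM copper sulfate. Illumina sequencing of input and output plasmid inserts gave the reads, and sequences under 100 input reads were excluded. The nucleation score is the DiMSum log enrichment of output over input reads, centred on the mode score of non-aggregating sequences.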

Substance: FLCVYDFVVRNIKGIVLRLH
- amyloid nucleation score: 0.294 ± 0.8

Substance: VHARYMIFWKWTILLHS
- amyloid nucleation score: inactive

Substance: PLCFLVMGHGTRCVCRWNTG
- amyloid nucleation score: -0.464 ± 0.63

Substance: PGNNMLFMWYHWGLGCNFLM
- amyloid nucleation score: -0.059 ± 0.79

Substance: AWDEINYD
- amyloid nucleation score: 0.292 ± 0.56

Substance: KLFQNHLIINCPAMVISNEQ
- amyloid nucleation score: 7.609 ± 0.057

Substance: RCGFNLFTS
- amyloid nucleation score: -0.883 ± 0.76

Substance: IVNINYCFTFKVPNHNNSMK
- amyloid nucleation score: 7.923 ± 0.04

Substance: IRRGTYNFLMFQKDSFEYVS
- amyloid nucleation score: 0.536 ± 0.62

Substance: SFPMLVISVS
- amyloid nucleation score: 4.7 ± 0.068

Substance: SYYSNSLVGDFPVPISNSVM
- amyloid nucleation score: -0.249 ± 1.1

Substance: MLNNRLNPLFARESGELLGA
- amyloid nucleation score: 0.871 ± 0.15

Substance: TTHCRLYMYVWWMYVVIFFD
- amyloid nucleation score: 2.11 ± 0.16

Substance: LWSSKYYKPPYWDNVVCSII
- amyloid nucleation score: -0.699 ± 1

Substance: NPRFLDRCYLYYPGSASRVA
- amyloid nucleation score: inactive

Substance: FVEIIAKWILTI
- amyloid nucleation score: 0.033 ± 0.6

Substance: EFSIHAGLM
- amyloid nucleation score: 0.222 ± 0.46

Substance: SRTIGTMQLVTMNWCFRKEA
- amyloid nucleation score: 5.37 ± 0.045

Substance: FDMVSVVVYMRAVTTKCGPS
- amyloid nucleation score: 1.73 ± 0.24

Substance: RFLCFLPNNYLFSAGFSLVL
- amyloid nucleation score: inactive

Substance: KILSYASLSAGSFLVQ
- amyloid nucleation score: -0.531 ± 1.1

Substance: IGLHVWHLSLKGSSDLSGTV
- amyloid nucleation score: 1.85 ± 0.12

Substance: LIGEVAYFICHFSKVVARLF
- amyloid nucleation score: 2.06 ± 0.075

Substance: TANLKDSGQSYFKTRSVWTF
- amyloid nucleation score: inactive

Substance: KAFFFPQFCCIYGLGM
- amyloid nucleation score: 8.903 ± 0.035

Substance: FKAERSFLLSRYILKREGSQ
- amyloid nucleation score: -0.972 ± 0.34

Substance: ISCSKMRRFWHL
- amyloid nucleation score: 0.587 ± 0.29

Substance: VTWALCAGGRQFVTFSS
- amyloid nucleation score: 8.505 ± 0.045

Substance: CLINMTIYGERWRCVNDVPN
- amyloid nucleation score: 3.54 ± 0.052

Substance: NVERSFGAVGQVRIEEYARD
- amyloid nucleation score: 0.266 ± 1

Substance: YDNTEASGLSWRTLLQGAVW
- amyloid nucleation score: 0.562 ± 0.45

Substance: QDSFRGLGYFWGPQHETVVM
- amyloid nucleation score: -1.23 ± 0.48

Substance: LWGMGGAWEPERETLVV
- amyloid nucleation score: -0.268 ± 0.63

Substance: MFILGVRPMISKSHNVPTQR
- amyloid nucleation score: -0.171 ± 0.42

Substance: NFYIATIRTAFLSVMAVRN
- amyloid nucleation score: 3.29 ± 0.089

Substance: FDKASLKFCVMLVVRSV
- amyloid nucleation score: 0.236 ± 1.1

Substance: ICCGVEHWYVIGFNVGSFYF
- amyloid nucleation score: 7.964 ± 0.039

Substance: SLDETSPLVWEWEICSDLYN
- amyloid nucleation score: 0.68 ± 0.56

Substance: YLEWIL
- amyloid nucleation score: -2.06 ± 0.54

Substance: VFFVHSYND
- amyloid nucleation score: inactive

Substance: GWQGISAVSRGTGCWLEGTG
- amyloid nucleation score: 0.649 ± 0.34

Substance: QNGRMSTHTDFGGM
- amyloid nucleation score: 0.39 ± 0.38

Substance: CASLRIEDP
- amyloid nucleation score: 1.17 ± 0.18

Substance: EYFFYLLSSIMHIE
- amyloid nucleation score: 2.45 ± 0.1

Substance: LYLSVPQYYFSCLFSMVEVQ
- amyloid nucleation score: -1.07 ± 0.61

Substance: MIPKVFSIRKSVGIYWNAEY
- amyloid nucleation score: -1.04 ± 0.39

Substance: QSTHMNT
- amyloid nucleation score: -0.364 ± 0.48

Substance: TCLRSIVVVFLALGLDSFFW
- amyloid nucleation score: -0.177 ± 0.3

Substance: LRSKTDAPDGRFLAWSSMLC
- amyloid nucleation score: 0.458 ± 0.25

Substance: TYLSVGMNLLVGSPFNYNDL
- amyloid nucleation score: inactive

Substance: MEVNLKVKSLCQWGT
- amyloid nucleation score: 6.791 ± 0.045

Substance: RELLSLSYSLVMCVVLRV
- amyloid nucleation score: 0.734 ± 0.18

Substance: NSLYIFMVKYP
- amyloid nucleation score: 3.96 ± 0.049

Substance: SQFLEYTFEYFSGFPGRLVE
- amyloid nucleation score: -0.316 ± 0.42

Substance: PSLWFLCRYGVTSIGLVFTL
- amyloid nucleation score: -0.159 ± 1.1

Substance: FMRQMLLVLMPWCQRRWACL
- amyloid nucleation score: -0.382 ± 0.32

Substance: HGTNTRADYFCIYPHGNG
- amyloid nucleation score: -0.281 ± 0.37

Substance: VVTHYLQIYPRFSMHFFVSV
- amyloid nucleation score: 1.33 ± 0.22

Substance: SRNNIAQFCSLHAN
- amyloid nucleation score: inactive

Substance: MRMGMLKMTFFGCSPDLKRL
- amyloid nucleation score: -0.277 ± 0.38

Substance: KELYTSVSQGLCRYSISSCR
- amyloid nucleation score: -0.786 ± 0.35

Substance: IYRTYYGMNACLINLCMFDN
- amyloid nucleation score: 7.734 ± 0.055

Substance: RCLSKVLSLL
- amyloid nucleation score: -1.72 ± 0.54

Substance: MDSILVNVYVVNW
- amyloid nucleation score: 9.259 ± 0.042

Substance: GGYDP
- amyloid nucleation score: inactive

Substance: RNFGAVAFWVGWHWVVFSVG
- amyloid nucleation score: -0.588 ± 0.29

Substance: VMLNWDMGDFRA
- amyloid nucleation score: inactive

Substance: GMADWNWFFPILFDPMGTGL
- amyloid nucleation score: -0.357 ± 0.49

Substance: FCNNWDFF
- amyloid nucleation score: 2.41 ± 0.14

Substance: PVRLPSMWNVDRAFWPDYCQ
- amyloid nucleation score: inactive

Substance: HRLVGTC
- amyloid nucleation score: 1.86 ± 0.21

Substance: TYPMMGQGFC
- amyloid nucleation score: 0.131 ± 0.55

Substance: LRTGHPSI
- amyloid nucleation score: inactive

Substance: IYLSTCTYF
- amyloid nucleation score: 0.155 ± 0.49

Substance: NGVRSWSQHLWKRGRWEG
- amyloid nucleation score: 1.69 ± 0.3

Substance: LKNLGYNMSPMYHWHCSSSK
- amyloid nucleation score: -0.003 ± 1.1

Substance: RLKCSYTGSALLGRSLGNPE
- amyloid nucleation score: 0.29 ± 0.54

Substance: SRTRGTLDGS
- amyloid nucleation score: 0.241 ± 0.36

Substance: CNYKYSDLVFHCLPPGRGYN
- amyloid nucleation score: inactive

Substance: DSTVRPMRGGECNAGVAGKE
- amyloid nucleation score: 0.794 ± 0.24

Substance: NAIYLVRMDYS
- amyloid nucleation score: 0.138 ± 0.23

Substance: PAYLDPCTSFSVILAMVLLW
- amyloid nucleation score: 0.697 ± 0.55

Substance: YMSFPLDVLVICLCRIVIES
- amyloid nucleation score: 0.089 ± 1.1

Substance: SDTFS
- amyloid nucleation score: 0.68 ± 0.56

Substance: LVIKCFCA
- amyloid nucleation score: 6.476 ± 0.031

Substance: VSRMYKHLSYMVLIYSPWRE
- amyloid nucleation score: -0.315 ± 1

Substance: RKAMRYVVCDRRPMCYRNSW
- amyloid nucleation score: 0.752 ± 0.43

Substance: LSYVFIVECPSSAGMLPRPF
- amyloid nucleation score: 4.01 ± 0.13

Substance: LLLVPIPH
- amyloid nucleation score: 1.07 ± 0.38

Substance: DVKDDKLFNCLDVVMWVGNL
- amyloid nucleation score: -0.058 ± 0.15

Substance: CMKGVNSLDIASVSQFNLNR
- amyloid nucleation score: 2.28 ± 0.13

Substance: FLAGVSVFWSYCDSTNLSNQ
- amyloid nucleation score: -0.111 ± 0.29

Substance: PYVMCLNDYPSSKDCFQIVS
- amyloid nucleation score: -0.619 ± 0.27

Substance: LLYCYSLFVVSFDYTFHQRF
- amyloid nucleation score: 6.15 ± 0.062

Substance: NSSTVGMIAF
- amyloid nucleation score: -0.317 ± 0.22

Substance: CRLPQQKPHEMPTLDDFARS
- amyloid nucleation score: 0.553 ± 0.44

Substance: TVNLVFSTRG
- amyloid nucleation score: 4.64 ± 0.059

Substance: YYFMVL
- amyloid nucleation score: 0.656 ± 0.35

Substance: SVEFVLMRLGQLT
- amyloid nucleation score: 4.18 ± 0.058

Substance: GEGQNEVATHLYCQLAILPV
- amyloid nucleation score: 0.28 ± 0.46

Substance: GGTSAAS
- amyloid nucleation score: 1.01 ± 0.22

Substance: MHRFRMSLVLRRGSGLVGWF
- amyloid nucleation score: -0.081 ± 1.1

Substance: VFYRASRSFKQSVRAPVGLR
- amyloid nucleation score: -0.675 ± 0.55

Substance: KVYSKCFNGFRS
- amyloid nucleation score: 0.164 ± 0.8

Substance: HRDGLPVVTL
- amyloid nucleation score: 0.034 ± 1.1

Substance: LLFVLAKGNKTCSTPCIEIH
- amyloid nucleation score: -0.628 ± 0.27

Substance: LFTVYFKK
- amyloid nucleation score: -0.6 ± 0.63

Substance: VVVNYVFPLSEFMLISDAKC
- amyloid nucleation score: 0.833 ± 0.8

Substance: RWARQRAWTRLLNGE
- amyloid nucleation score: 1.18 ± 0.48

Substance: LIGDSLSVVRNRNFPPARGK
- amyloid nucleation score: -0.237 ± 1

Substance: FSWVIYYE
- amyloid nucleation score: -1.27 ± 1.1

Substance: GCHSFLPGYFTWNYDSDNYF
- amyloid nucleation score: inactive

Substance: YSTFSGH
- amyloid nucleation score: 0.806 ± 0.27

Substance: CFFTCC
- amyloid nucleation score: 9.912 ± 0.045

Substance: RTSGAVDCTHRFFSEWFKGV
- amyloid nucleation score: inactive

Substance: YLLYSNRQISYTFYCDDTVC
- amyloid nucleation score: inactive

Substance: YGSRVYLRVWKLGCFGQYGE
- amyloid nucleation score: 1.68 ± 0.27

Substance: LNHPTGCEYRWEARPNLCEK
- amyloid nucleation score: -0.553 ± 0.63

Substance: SFFCMKQMLNFL
- amyloid nucleation score: 0.533 ± 0.35

Substance: AEGVSL
- amyloid nucleation score: -0.554 ± 1

Substance: TGKLCSSIKWWGT
- amyloid nucleation score: 1.06 ± 0.39

Substance: GMKSFR
- amyloid nucleation score: -1.68 ± 1.1

Substance: VTYLGACVYRCCEMSLVFRF
- amyloid nucleation score: -0.412 ± 0.63

Substance: FFYFTMWNKHFEFVYNSSPC
- amyloid nucleation score: -0.613 ± 0.64

Substance: LKTACVDALLH
- amyloid nucleation score: 0.258 ± 0.26

Substance: QSVLSLSGLYGHDLREGLL
- amyloid nucleation score: -0.387 ± 0.49

Substance: VTYEIVLWSWIKDVVHKLLR
- amyloid nucleation score: -0.483 ± 0.48

Substance: MRQSNDWLFFLTNGTKCGEL
- amyloid nucleation score: -0.162 ± 0.46
